B1: … (peptide)
peptide: DGQVSDHSYVQW
B2: WGLKLPH (peptide)
peptide: WGLKLPH
B3: … (peptide)
peptide: YHLGPNQKMRTS
B4: … (peptide)
peptide: APKVTNARPTQL
B5: … (peptide)
peptide: KISMNRLHANFT
B6: HASNQRV (peptide)
peptide: HASNQRV
B7: YTPRNQL (peptide)
peptide: YTPRNQL
B8: … (peptide)
peptide: KALGYSLVGGEW
B9: … (peptide)
peptide: RLVTASMVSPSF
B10: GPKNHHQ (peptide)
peptide: GPKNHHQ
B11: … (peptide)
peptide: ETYKVTRVISPW
B12: … (peptide)
peptide: GSGFRNEEHSAH
B13: WAFKAPQ (peptide)
peptide: WAFKAPQ
B14: … (peptide)
peptide: GGYDLPWANWQN
B15: … (peptide)
peptide: WDLPTLRKTKQA
B16: IPVGERK (peptide)
peptide: IPVGERK
B17: … (peptide)
peptide: MTHSAHNSQKTN
B18: … (peptide)
peptide: GSLDMGNNKQPV
B19: … (peptide)
peptide: ATSKYPNSWAQT
B20: … (peptide)
peptide: GEPLTRFPNSDS
B21: … (peptide)
peptide: EYWHQRGSWFHR
B22: … (peptide)
peptide: NNNAAMQNHGVR
B23: … (peptide)
peptide: ASHSRPLMNYAP
B24: GDLWNVP (peptide)
peptide: GDLWNVP
B25: … (peptide)
peptide: SDRGKTVLHGQI
B26: … (peptide)
peptide: QTRWDDGSYQIS
B27: … (peptide)
peptide: SFRNLEKLSLWS
B28: … (peptide)
peptide: DDLLTAPRLGVW
B29: … (peptide)
peptide: GHPWTEIDFMSS
B30: … (peptide)
peptide: LQSNAADHHQGM
B31: … (peptide)
peptide: GFADVIHRKWSS
B32: … (peptide)
peptide: GKPDHRLVSLWR
B33: … (peptide)
peptide: CSHHKLKQC
B34: … (peptide)
peptide: CSLANPATC
B35: … (peptide)
peptide: CSKHNHSRC
B36: … (peptide)
peptide: VPVFLDQARVMK
B37: … (peptide)
peptide: KPILWNRSLNAL
B38: … (peptide)
peptide: SLAVANTRFMIR
B39: GRTIHSM (peptide)
peptide: GRTIHSM
B40: … (peptide)
peptide: CGITQTTTC
B41: … (peptide)
peptide: HQSLAGVPWSRH
B42: … (peptide)
peptide: WTKHNTPAHHLS
B43: RAQAHQV (peptide)
peptide: RAQAHQV
B44: WPVRNLL (peptide)
peptide: WPVRNLL
B45: … (peptide)
peptide: SGWEGKTHQGVR
B46: … (peptide)
peptide: KQELSDNLASHR
B47: SWQMRSY (peptide)
peptide: SWQMRSY
B48: QGWFRHS (peptide)
peptide: QGWFRHS
B49: … (peptide)
peptide: DRLTPITWDWSR
B50: … (peptide)
peptide: EGHVWSEYTWGT
B51: … (peptide)
peptide: CMNKIQRDC
B52: WVAAERR (peptide)
peptide: WVAAERR
B53: … (peptide)
peptide: CHQRQQTYC

These molecules were tested against Laminin 421/521 (assay: phage display, NGS count). Conditions: not given.

| Count | Molecule |
| --- | --- |
| 101 | B1 |
| 117 | B2 |
| 48 | B3 |
| 147 | B4 |
| 110 | B5 |
| 93 | B6 |
| 55 | B7 |
| 134 | B8 |
| 95 | B9 |
| 51 | B10 |
| 50 | B11 |
| 51 | B12 |
| 61 | B13 |
| 497 | B14 |
| 114 | B15 |
| 124 | B16 |
| 117 | B17 |
| 62 | B18 |
| 80 | B19 |
| 52 | B20 |
| 55 | B21 |
| 51 | B22 |
| 49 | B23 |
| 51 | B24 |
| 54 | B25 |
| 49 | B26 |
| 50 | B27 |

| Count | Molecule |
| --- | --- |
| 54 | B28 |
| 50 | B29 |
| 75 | B30 |
| 53 | B31 |
| 309 | B32 |
| 359 | B33 |
| 52 | B34 |
| 295 | B35 |
| 53 | B36 |
| 52 | B37 |
| 49 | B38 |
| 95 | B39 |
| 55 | B40 |
| 53 | B41 |
| 89 | B42 |
| 51 | B43 |
| 67 | B44 |
| 69 | B45 |
| 50 | B46 |
| 48 | B47 |
| 121 | B48 |
| 86 | B49 |
| 50 | B50 |
| 131 | B51 |
| 115 | B52 |
| 55 | B53 |

The molecules below were run against Human Myelin Basic Protein (Homo sapiens, UniProt P02686) (assay: Phage display library screening (Example 2, Python script analysis), binding to Human Myelin Basic Protein). Conditions: R3 Myelin Basic Protein; combined unique sequence count, Python/R script analysis.
Chain of Human Myelin Basic Protein (P02686 134-304): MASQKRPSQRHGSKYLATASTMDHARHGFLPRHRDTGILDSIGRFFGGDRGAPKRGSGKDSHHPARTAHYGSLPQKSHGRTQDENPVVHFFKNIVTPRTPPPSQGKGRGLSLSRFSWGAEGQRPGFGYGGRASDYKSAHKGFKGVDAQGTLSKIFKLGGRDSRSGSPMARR
Set-up: Enzo 200-606-M001 from human; purchased Enzo 200-606-M001; host or cells: human brain (tissue-derived)
Procedure: Phage display library screens were used to identify peptides that bind to target proteins (including specific laminin trimers) that are expressed in human nerves, as described in Table 3. These screens were also carried out to identify peptides that could bind selectively to nerves versus muscle. Such peptides could therefore be useful for systemic in-vivo labeling of nerves during fluorescence assisted surgery. Specifically, m 13 phage libraries expressing 7 or 12 random amino acid peptides, or a cyclic peptide CX7C, on the N-terminus of the minor coat protein pIII (New England Biolabs; NEB) were processed through multiple rounds of selection for binding to target proteins expressed in nerves, or to excised human nerves, nerve extracts, or muscle, as described further below.
For screening against the specified target proteins in Table 1, including LN211, LN411, LN421, and LN521, the phage library was processed by up to 4 binding and wash cycles. For selection, phage libraries were incubated for up to 24 hours at 4° C. in 96 well plates that had been coated with one of the target proteins. Plates were then washed with PBS and phage were eluted using 0.2M glycine pH 2.0. Phage supernatants where then neutralized with Tris pH 9.0 prior to plating on TGI bacteria and LB agar plates. Colonies were counted to determine titer followed by DNA preparation of pools of phage and NextGen sequencing. After rounds of selection, phage were pooled and amplified for iterative selection. Phage that were bound at each round were sequenced. NextGen sequencing of pools after 2, 3 and 4 rounds of selection was used to isolate candidate sequences that were analyzed further to identify those that specifically bound each unique target protein.
Python Script Analysis: For all NEB sequence datasets, a python script was used to translate, trim, and filter the peptide sequences. The script translated the nucleotide sequences, translating amber codons as glutamine in peptide sequences, and then trimmed the end sequences that come from the vector. Secondly, the script combined the unique counts of trimmed peptides with identical sequences. […] Another python script was used to group peptides from different assays according to protein target (Myelin Protein Zero, Myelin Proteolipid Protein, Myelin Basic Protein, and Nidogen-2) and also combine the unique sequence counts for each peptide. An R script was written to merge the peptide sequences from different data files and determine peptides specific for each protein target but absent from different protein binding datasets. Peptide sequences were ranked by unique sequence count.

| Molecule | Count |
| --- | --- |
| MNSPLAQ (R3 Myelin Basic Protein-binding peptide) | 6 |
| ETHYKIA (R3 Myelin Basic Protein-binding peptide) | 6 |
| TSPPLAH (R3 Myelin Basic Protein-binding peptide) | 8 |
| SPPRFIP (R3 Myelin Basic Protein-binding peptide) | 8 |
| ALRDTRV (R3 Myelin Basic Protein-binding peptide) | 6 |
| SIAEVLGLWRNV (R3 Myelin Basic Protein-binding peptide) | 7 |
| CEDSDKSVC (R3 Myelin Basic Protein-binding peptide) | 7 |
| NTSLSFK (R3 Myelin Basic Protein-binding peptide) | 8 |
| SLWQTLR (R3 Myelin Basic Protein-binding peptide) | 6 |
| DSYLLSA (R3 Myelin Basic Protein-binding peptide) | 8 |
| LMLPQLE (R3 Myelin Basic Protein-binding peptide) | 6 |
| RSRKHRP (R3 Myelin Basic Protein-binding peptide) | 6 |
| CTMTNQYDC (R3 Myelin Basic Protein-binding peptide) | 6 |
| QPIDSTS (R3 Myelin Basic Protein-binding peptide) | 7 |
| QYWDILG (R3 Myelin Basic Protein-binding peptide) | 6 |
| VPTLRIP (R3 Myelin Basic Protein-binding peptide) | 8 |

Source: patent publication US20240207421A1, “NERVE TARGETING PEPTIDES AND METHODS OF USE” (ALUME BIOSCIENCES, INC., priority 2020, published 2024)
